# Reference: US9347942B2, “Ultrasensitive cell based sensors and uses thereof” (CANVAX BIOTECH SL, priority 2010, dated 2016)
# B1: human granzyme A: Tryptase-like serine protease (GZMA, NM_006144) used as granule stored reporter (protein, UniProt P12544 29-262, looked up)
# Granzyme A: IIGGNEVTPHSRPYMVLLSLDRKTICAGALIAKDWVLTAAHCNLNKRSQVILGAHSITREEPTKQIMLVKKEFPYPCYDPATREGDLKLLQLMEKAKINKYVTILHLPKKGDDVKPGTMCQVAGWGRTHNSASWSDTLREVNITIIDRKVCNDRNHYNFNPVIGMNMVCAGSLRGGRDSCNGDSGSPLLCEGVFRGVTSFGLENKCGDPRGPGVYILLSKKHLNWIIMTIKGAV
# B2: human chymase: Chymase-like serine protease (CMA1, NM_001836) used as granule stored reporter (protein, UniProt P23946 22-247, looked up)
# Chymase: IIGGTECKPHSRPYMAYLEIVTSNGPSKFCGGFLIRRNFVLTAAHCAGRSITVTLGAHNITEEEDTWQKLEVIKQFRHPKYNTSTLHHDIMLLKLKEKASLTLAVGTLPFPSQFNFVPPGRMCRVAGWGRTGVLKPGSDTLQEVKLRLMDPQACSHFRDFDHNLQLCVGNPRKTKSAFKGDSGGPLLCAGVAQGIVSYGRSDAKPPAVFTRISHYRPWINQILQAN
# B3: neutrophil elastase: Elastase-like serine protease (ELA2, NM_001972) used as granule stored reporter (protein, UniProt P08246 30-267, looked up)
# Neutrophil elastase: IVGGRRARPHAWPFMVSLQLRGGHFCGATLIAPNFVMSAAHCVANVNVRAVRVVLGAHNLSRREPTRQVFAVQRIFENGYDPVNLLNDIVILQLNGSATINANVQVAQLPAQGRRLGNGVQCLAMGWGLLGRNRGIASVLQELNVTVVTSLCRRSNVCTLVRGRQAGVCFGDSGSPLVCNGLIHGIASFVRGGCASGLYPDAFAPVAQFVNWIDSIIQRSEDNPCPHPRDPDPASRTH
# B4: human proteinase 3: Elastase-like serine protease (PRTN3, NM_002777) used as granule stored reporter (protein, UniProt P24158 28-248, looked up)
# Myeloblastin: IVGGHEAQPHSRPYMASLQMRGNPGSHFCGGTLIHPSFVLTAAHCLRDIPQRLVNVVLGAHNVRTQEPTQQHFSVAQVFLNNYDAENKLNDVLLIQLSSPANLSASVATVQLPQQDQPVPHGTQCLAMGWGRVGAHDPPAQVLQELNVTVVTFFCRPHNICTFVPRRKAGICFGDSGGPLICDGIIQGIDSFVIWGCATRLFPDFFTRVALYVDWIRSTLR
# Key:
# Format in all cases: cell-based, Rat
# [1] = system: anti-TNP IgE labelled RBL2H3-hGB cells; assay: IgE-allergen sensor, granzyme B release (Example 16); settings: substrate 1 uM
# Excerpt: This example describes the use of the sensor for testing modulators of mast cells granule exocytosis widely used to find novel anti-allergic compounds as illustrated in FIG. 1. RBL2H3 were stably transfected with human granzyme B under the control of hCMV-MoLV5′LTR chimeric promoter as described in example 3. A mouse IgE monoclonal antibody against trinitrophenyl hapten was purified from IgELb4 hybridoma purchased from ATCC (TIB-141). TNP-N-hydroxysuccinimide esther was purchased from Biosearch Technologies Inc and conjugated to bovine serum albumin (BSA) using a standard protocol. Conjugation was determined at pH 7.0 by measuring TNP absorbance at 348 nm using 15400 units per mol per 10 mm light pass length as the extinction coefficient of TNP. Molar ratio of TNP to BSA in the TNP-BSA conjugate was calculated assuming the molecular weight of BSA is 60000. Sensor cells were cultivated as adherent cells for 48 hours in 6 well plates and then washed with HBSS and harvested by pippeting. 500.000 cells were labelled with anti-TNP IgE at 1 ug/ml_in HBSS for 60 minutes at 37 Celsius degrees, washed with 10 mL of HBSS, centrifuged and pellet was resuspended in 1 mL of HBSS. In a black wall 384 well plate 10 uL of serial dilutions of TNP-BSA in HBSS were added each containing the FRET-based granzyme B substrate FAM-[…]TAMRA (FAM-[…]-TAMRA) at 1 uM final concentration whose cleavage was detected by fluorescence using excitation at 485 nm and emission at 535 nm. Dilutions of TNP-BSA tested were: 1 ug/mL, 1 ng/mL, 1 pg/mL and 1 fg/mL. To each well 10 uL (5000 cells) of anti-TNP IgE labelled cells were added and plates were incubated at 37 Celsius degrees in a BMG-Labtech microplate fluorimeter. Microplate was read at 0, 15, 30, 45 and 60 minutes. The following controls were included: (1) wells with anti-TNP IgE labelled cells plus granzyme B substrate but without TNP-BSA; (2) wells with non-labelled cells plus granzyme B substrate and TNP-BSA at 1 ug/ml_; (3) wells with granzyme B substrate and TNP-BSA at 1 ug/ml_but no cells. Each well was included by triplicate.
# RBL-2H3 cells [2] = assay: Activity of granule stored protease reporters released by ionomycin, transient transfection (Example 4); settings: transiently transfected RBL-2H3, 650.000 cells, 10 uM ionomycin 1 hour, supernatant
# Excerpt: Vectors were developed to express human granzyme A, M, H and K and human neutrophil elastase, human chymase, human cathepsin G and human proteinase 3 under the control of hCMV-MoMLV5′LTR chimeric promoter and RBL-2H3 cells were individually transfected by electroporation using a microporator (Gentelbio, South Korea) with the above plasmids and also with human granzyme B plasmid as control and with cytosolically truncated hNGFR receptor as a surface tag for determination of the percentage of transfection by flow cytometry with a anti-hNGFR monoclonal antibody conjugated to FITC (Miltenyi Biotec, Germany). After 48 hours cells were harvested by pipetting, washed with HBSS buffer and counted. 650.000 cells in 200 microliters of HBSS buffer were treated in suspension with 10 uM ionomycin for 1 hour and after centrifugation at 400 g for 5 minutes the supernatants were analysed for activity with specific fluorescent substrates. Controls of cells incubated with HBSS buffer only were included. Fluorescent substrates were specific tetrapeptides conjugated to 7-Amido-4-Methylcoumarin (AMC) and were custom synthesized by a custom peptide supplier. Specific substrates were: VANR-AMC for granzyme A; KVPL-AMC for granzyme M; PTSY-AMC for granzyme H; YRFK-AMC for granzyme K; PEEI-AMC for human neutrophil elastase; PTSY-AMC for human chymase; PTSY-AMC for human cathepsin G; VADC-AMC for human proteinase 3 and IEPD-AMC for human granzyme B. Released AMC was measured by excitation at 360 nm and emission at 460 nm in a BMG Labtech microplate fluorimeter in 96 well microplates using 125 microliters of supernatant and 125 microliters of specific substrate at 400 micromol per liter in HBSS buffer. Microplates were incubated at 37 Celsius degrees on the reader and were kinetically read at 0, 15, 30, 45 and 60 minutes. Percentage of transient electroporation measured using truncated hNGFR tag and anti-hNGFR-FITC antibody was about 60 percent.
# RBL-2H3 cells [3] = assay: Ionomycin-induced release of granule stored protease reporters from stable cell lines (Example 5); settings: stable RBL-2H3, 10 uM ionomycin 1 hour, supernatant equivalent to 100.000 cells, AMC substrate
# Excerpt: As either tryptase-like enzymes, chymase-like enzymes, elastase-like enzymes or asp-ase like enzymes are useful for the methods of the present invention we selected human granzyme A (tryptase-like enzyme); human granzyme B (Asp-ase-like enzyme); human chymase (chymase-like enzyme) and human proteinase 3 (elastase-like enzyme) for further examples. Vectors were developed for stable expression of human granzyme A, human granzyme B, human chymase and human proteinase 3 under the control of hCMV-MoMLV5′LTR chimeric promoter. A hygromycin resistance cassette was included in the vector backbone for selection of stable populations of cells. The vector also included an IRES-NGFR cassette cloned downstream of granule stored protease reporter and thus, under the control of hCMV-MoMLV5′LTR promoter for flow cytometry and/or selection by MACS of stable cells expressing either human granzyme A or human granzyme B or human chymase or human proteinase 3. Each vector was individually electroporated using a microporator (Digital Bio Technology, South Korea) into RBL-2H3 and after 48 hours hygromycin at 1500 ug/mL was added to culture for selection. After selection for about 2 weeks cells were analysed by flow cytometry (Guava Technologies, USA) with an antibody against NGFR coupled to FITC. Positive population where magnetically separated by MACS using anti-NGFR-MACS sup.R (Miltenyi Biotec, Germany). Sorted populations were again analysed again by flow cytometry to check the sorting efficiency. Percentage of NGFR positive cells was always higher than 65 percent. Cells were seeded the night before experiment in 24 well microplates at 650.000 cells per well in 800 microliters of complete cell culture medium. Next day cells were washed with HBSS buffer and were treated with 10 uM ionomycin for 1 hour at 37 Celsius degrees in 200 uL of HBSS buffer and after centrifugation at 400 g for 5 minutes supernatants were analysed for activity with specific fluorescent substrates. Controls of cells incubated with HBSS buffer only were included. Fluorescent substrates were: VANR-AMC for granzyme A; PEEI-AMC for human neutrophil elastase; PTSY-AMC for human chymase; VADC-AMC for human proteinase 3 and IEPD-AMC for human granzyme B. Released AMC was measured by excitation at 360 nm and emission at 460 nm in a BMG Labtech microplate fluorimeter in 96 well microplates using 125 microliters of supernatant and 125 microliters of specific substrate at 400 micromol per liter in HBSS buffer. Microplates were incubated at 37 Celsius degrees on the reader and were kinetically read at 0, 15, 30, 45 and 60 minutes. Control wells with substrate only in HBSS buffer were included to subtract autofluorescence of substrates to both cells treated with ionomycin and to cells treated with HBSS buffer only. Autofluorescence of peptide substrates in HBSS buffer was about 3000 while fluorescence of cells treated with HBSS buffer only for 60 minutes at 37 Celsius degrees was about 5000, that is basal release in the absence of exocytosis modulator was about 2000. In contrast, fluorescence of ionomycin-induced release of human granzymes A and B was about 20.000 for a signal to background of 10 when using the supernatant equivalent to 100.000 cells; fluorescence of ionomycin-induced release of human chymase was about 30.000 for a signal to background of 15 when using the supernatant equivalent to 100.000 cells and fluorescence of ionomycin-induced release of human proteinase 3 was about 12.000 for a signal to background of 6 when using the supernatant equivalent to 100.000 cells. Thus, tryptase-like enzymes, chymase-like enzymes, elastase-like enzymes or asp-ase like enzymes can be stably expressed into granules of hemopoyetic cells with professional regulated exocytosis and such granule stored proteases are released by exocytosis modulators to produce sensors with good signal to background ratios using specific AMC-coupled peptide substrates. […]
Molecule,"Fluorescence after 30 minutes at 37° C. ([1]; TNP-BSA 1 pg/mL, 5000 cells with anti-TNP IgE)","Fluorescence after 30 minutes at 37° C. ([1]; TNP-BSA 1 ng/mL, 5000 cells with anti-TNP IgE)","Fluorescence after 30 minutes at 37° C. ([1]; TNP-BSA 1 ug/mL, 5000 cells with anti-TNP IgE)","Fluorescence after 30 minutes at 37° C. ([1]; TNP-BSA 1 ug/mL, 5000 cells without anti-TNP IgE (non-labelled))","Fluorescence after 30 minutes at 37° C. ([1]; TNP-BSA 1 fg/mL, 5000 cells with anti-TNP IgE)",enzymatic activity of released reporter with specific AMC substrate (RBL-2H3 cells [2]),fluorescence of ionomycin-induced release (RBL-2H3 cells [3]),signal to background (RBL-2H3 cells [3])
"TNP-BSA: trinitrophenyl hapten conjugated to bovine serum albumin, model allergen",35884,34556,30942,2935,29826,,,
B1,,,,,,higher activity than granzyme K,about 20.000,10
B2,,,,,,highest activity,about 30.000,15
B3,,,,,,equivalent activity that was higher than that of human granzyme M,,
B4,,,,,,equivalent activity that was higher than that of human granzyme M,about 12.000,6
